Biological target: Insulin
Experiment: polyreactivity ELISA on insulin (and dsDNA)

Insulin, sequence (P01308 25-54, chain 1 of 2): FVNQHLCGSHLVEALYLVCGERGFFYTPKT
Insulin, sequence (P01308 90-110, chain 2 of 2): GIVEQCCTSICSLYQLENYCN

Work on Bococizumab analogue (antibody) yielded a reactivity score of over 15.

For Briakinumab analogue (antibody), the reactivity score was over 15.

— patent US20260042850A1
